Source: publication PMC2115214
Where two headings read alike, the source gives them in different places.

Columns and labels:
[1] = biological target: high-affinity receptor for bFGF on bovine capillary endothelial (BCE) cells (bovine (endogenous in BCE cells)); assay: radioligand binding
[2] = biological target: high-affinity receptor for bFGF on bovine capillary endothelial (BCE) cells (bovine (endogenous in BCE cells)); assay: radioligand binding; remark: listed apart in the source

- fmol bFGF bound to high affinity sites [1]: 3.1 fmol
- fmol bFGF bound to high affinity sites [2]: 2.6 fmol
Substance: 125I-labeled basic fibroblast growth factor (125I-bFGF) (from UniProt P09038 1-288) (ligand)
